Assay results as given in paper PMC9892492, “Bioconversion of 4-hydroxyestradiol by extradiol ring-cleavage dioxygenases from Novosphingobium sp. PP1Y” (Scientific Reports, 2023).

B1: PP26077 (Novosphingobium sp. PP1Y) (protein)
chain: MGIKALGYVVVETAKPEEWNTFLTQFAGAMRAPDAADGAALYRVDDRVFRFRIEAGTREWFVAAGYELTDRAALDALAVRIGDAARPVEWADANEAAGRGAEAMFRTSDPAGNGLEFYCGDARSDKPFVSPIGVPEFLTGDLGMGHAVFSAPDFEETIAFHRDVVGFHETDMPRFHLMGPDAPSMGFAFLHADNGRHHSIAFGEGPVPPSGAVHIMLELPDLIEVGKAHDRMKRFGYPESATLGRHVNDETTGFYVQTPSGFDLEIGCDSLIIDPASWEVTKHEGISVWGHEWAWQKALKEQQEQEKGA
notes: full ORF in pET22b(+), E. coli BL21(DE3); Q-Sepharose batch purified; no tag mentioned
B2: PP00124 (Novosphingobium sp. PP1Y) (protein)
chain: MVAVTELGYLGLTVTDLDAWRSYAAEVAGMEIVDEGEGDCLYLRMDQWHHRIALHAGDTDDLAYLGWRVAGPVEFDAMVAQLAAAGIAVEVASEAEARERRVLGLAKLADPGGNPTEIFYAPQVDTHKPFHPGRPMFGRFLTGSEGIGHCILRQDDVAAAAAFYGLLGLRGSVEYHLQLPNGMVAQPYFMHCNERQHSIAFGLGPMEKRINHLMFEYTDLDDLGLAHDIVRARKIDVALQLGKHANDQALTFYCANPSGWLWEFGWGARKAPSQQEYYTRDIFGHGNEAAGYGMDIPLG
notes: as for B1
B3: PP00193 (Novosphingobium sp. PP1Y) (protein)
chain: MALTGVLRPGYVQLRVLDLDEAIQHYRDRIGLNLVSVEDGRAFFQAFDEFDRHSIILREADSAGLDRMAFKVAKDADLDHFAERLLDMGVHVDIIPAGEDPGVGRKIRFNTPTAHVFDLYAEMELSETGPAVRNPDVWIAEPRGMRATRFDHCALNGVDISASAKIFVEALDFSVTEELVDEASGTRLGIFLSCSNKAHDVAFLGYPEDGRIHHTSFNLESWHDVGHAADIISRYDISLDIGPTRHGITRGQTIYFFDPSGNRNETFSGGYTYYPDNPRRMWQAENAGKAIFYYEKALNDRFMTVNT
notes: as for B1

Key:
Assay in all cases: purified protein
Settings in all cases: 50 mM Tris/HCl pH 7.5, 25 °C, O2 co-substrate, Fe(II) enzyme
Cc1cccc(O)c1O = system: T1, Cc1cccc(O)c1O; format: biochemical, Novosphingobium sp. PP1Y
T1 construct: full ORF in pET22b(+), E. coli BL21(DE3); Q Sepharose column purified, contaminated; no tag mentioned

Oc1cccc(-c2ccccc2)c1O = system: Oc1cccc(-c2ccccc2)c1O
[1] = system: [H][C@@]12CCc3c(ccc(O)c3O)[C@@]1([H])CC[C@]1(C)[C@@H](O)CC[C@@]21[H]
purified protein [2] = substrate: Oc1cccc(-c2ccccc2)c1O; remark: listed apart in the source
purified protein [3] = substrate: Cc1cccc(O)c1O; format: biochemical, Novosphingobium sp. PP1Y
purified protein [4] = substrate: Cc1ccc(O)c(O)c1; format: biochemical, Novosphingobium sp. PP1Y
purified protein [5] = substrate: Oc1ccccc1O; format: biochemical, Novosphingobium sp. PP1Y
purified protein [6] = substrate: [H][C@@]12CCc3c(ccc(O)c3O)[C@@]1([H])CC[C@]1(C)[C@@H](O)CC[C@@]21[H]; format: biochemical, Novosphingobium sp. PP1Y

Molecule	Km (purified protein [2])	kcat (purified protein [2])	kcat/Km (purified protein [2])	Km (purified protein [3])	kcat (purified protein [3])	kcat/Km (purified protein [3])	Km (purified protein [4])	kcat (purified protein [4])	kcat/Km (purified protein [4])	Km (purified protein [5])	kcat (purified protein [5])	kcat/Km (purified protein [5])	also measured
PP28735 (Novosphingobium sp. PP1Y)													Km (Cc1cccc(O)c1O): 451 µM; kcat (Cc1cccc(O)c1O): 1.47 s⁻¹; kcat/Km (Cc1cccc(O)c1O): 3300 M⁻¹ s⁻¹; Km (Oc1cccc(-c2ccccc2)c1O): 67.90 µM; kcat (Oc1cccc(-c2ccccc2)c1O): 18.6 s⁻¹; kcat/Km (Oc1cccc(-c2ccccc2)c1O): 270000 M⁻¹ s⁻¹; Km [1]: 1.90 µM; kcat [1]: 38.2 s⁻¹; kcat/Km [1]: 2.01e+07 M⁻¹ s⁻¹
B1	35.20 µM	8.9 s⁻¹	250000 M⁻¹ s⁻¹	2600 µM	3 s⁻¹	1200 M⁻¹ s⁻¹							
B2	3.70 µM	13.8 s⁻¹	3.72e+06 M⁻¹ s⁻¹	2.90 µM	10.2 s⁻¹	3.53e+06 M⁻¹ s⁻¹	1.80 µM	2.97 s⁻¹	1.65e+06 M⁻¹ s⁻¹	38.20 µM	5.44 s⁻¹	140000 M⁻¹ s⁻¹	Km (purified protein [6]): 0.75 µM; kcat (purified protein [6]): 8.6 s⁻¹; kcat/Km (purified protein [6]): 1.14e+07 M⁻¹ s⁻¹
B3	3.15 µM	30.5 s⁻¹	9.7e+06 M⁻¹ s⁻¹	3.17 µM	225 s⁻¹	7.09e+07 M⁻¹ s⁻¹	1.89 µM	120 s⁻¹	6.35e+07 M⁻¹ s⁻¹	1.69 µM	194 s⁻¹	1.15e+08 M⁻¹ s⁻¹	
